Measured values taken from paper PMC12416549 (2024).
Residue numbers refer to the chain shown, from its start. In names and notes the source's numbering stands.

T1: TNFR1 (Homo sapiens, UniProt P19438)
T1 chain: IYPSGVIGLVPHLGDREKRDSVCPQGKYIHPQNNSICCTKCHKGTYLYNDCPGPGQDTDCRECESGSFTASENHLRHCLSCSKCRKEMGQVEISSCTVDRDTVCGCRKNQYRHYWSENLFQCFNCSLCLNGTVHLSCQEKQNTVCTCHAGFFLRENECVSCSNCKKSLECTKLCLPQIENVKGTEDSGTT

B1: E42W (designed binder)
chain: SMEEEVEKAAKEYEKKKKEAIEKHLEKLKAKDKEAAERFLKWLEEAAKEYAKDEAKTMSEEEAKRRAKKYKEKVLLSELSEEEQKEIKEAEEKLVRTILKYVEEAAK
B2: K64E (designed binder)
chain: B1 chain with W42E, K64E
B3: A30C (designed binder)
chain: B1 chain with A30C, W42E
B4: E34Q (designed binder)
chain: B1 chain with E34Q, W42E
B5: E78G (designed binder)
chain: B1 chain with W42E, E78G
B6: I21E (designed binder)
chain: B1 chain with I21E, W42E
B7: Q84D (designed binder)
chain: B1 chain with W42E, Q84D
B8: E44F (designed binder)
chain: B1 chain with W42E, E44F
B9: R66W (designed binder)
chain: B1 chain with W42E, R66W
B10: K64P (designed binder)
chain: B1 chain with W42E, K64P
B11: E4Y (designed binder)
chain: B1 chain with E4Y, W42E
B12: E54F (designed binder)
chain: B1 chain with W42E, E54F
B13: L75E (designed binder)
chain: B1 chain with W42E, L75E
B14: E45I (designed binder)
chain: B1 chain with W42E, E45I
B15: A20C (designed binder)
chain: B1 chain with A20C, W42E
B16: R96Y (designed binder)
chain: B1 chain with W42E, R96Y
B17: K27E (designed binder)
chain: B1 chain with K27E, W42E
B18: V102T (designed binder)
chain: B1 chain with W42E, V102T
B19: E3F (designed binder)
chain: B1 chain with E3F, W42E
B20: E37I (designed binder)
chain: B1 chain with E37I, W42E
B21: L99M (designed binder)
chain: B1 chain with W42E, L99M
B22: A36L (designed binder)
chain: B1 chain with A36L, W42E
B23: V74P (designed binder)
chain: B1 chain with W42E, V74P
B24: E104D (designed binder)
chain: B1 chain with W42E, E104D
B25: K68D (designed binder)
chain: B1 chain with W42E, K68D
B26: E49A (designed binder)
chain: B1 chain with W42E, E49A
B27: K56L (designed binder)
chain: B1 chain with W42E, K56L
B28: Y13I (designed binder)
chain: B1 chain with Y13I, W42E
B29: L43C (designed binder)
chain: B1 chain with W42E, L43C
B30: K18D (designed binder)
chain: B1 chain with K18D, W42E
B31: L40I (designed binder)
chain: B1 chain with L40I, W42E
B32: A36E (designed binder)
chain: B1 chain with A36E, W42E
B33: E86G (designed binder)
chain: B1 chain with W42E, E86G
B34: K17V (designed binder)
chain: B1 chain with K17V, W42E
B35: F39E (designed binder)
chain: B1 chain with F39E, W42E
B36: A67V (designed binder)
chain: B1 chain with W42E, A67V
B37: D32L (designed binder)
chain: B1 chain with D32L, W42E
B38: R96Q (designed binder)
chain: B1 chain with W42E, R96Q
B39: E92K (designed binder)
chain: B1 chain with W42E, E92K
B40: E26D (designed binder)
chain: B1 chain with E26D, W42E
B41: K16F (designed binder)
chain: B1 chain with K16F, W42E
B42: K11G (designed binder)
chain: B1 chain with K11G, W42E
B43: A67T (designed binder)
chain: B1 chain with W42E, A67T
B44: A106M (designed binder)
chain: B1 chain with W42E, A106M
B45: V102A (designed binder)
chain: B1 chain with W42E, V102A
B46: A55K (designed binder)
chain: B1 chain with W42E, A55K
B47: A106N (designed binder)
chain: B1 chain with W42E, A106N
B48: K48Q (designed binder)
chain: B1 chain with W42E, K48Q
B49: E91G (designed binder)
chain: B1 chain with W42E, E91G
B50: T97P (designed binder)
chain: B1 chain with W42E, T97P
B51: A55C (designed binder)
chain: B1 chain with W42E, A55C
B52: M2H (designed binder)
chain: B1 chain with M2H, W42E
B53: I87Y (designed binder)
chain: B1 chain with W42E, I87Y
B54: M58H (designed binder)
chain: B1 chain with W42E, M58H
B55: L79H (designed binder)
chain: B1 chain with W42E, L79H

Molecular target: T1, TNFR1
Test: yeast display SC50

| Binder | apparent Kd (screen) [nM] |
| --- | --- |
| B1 | 0.49 |
| B2 | 0.593 |
| B3 | 0.869 |
| B4 | 0.446 |
| B5 | 3 |
| B6 | 0.539 |
| B7 | 3.63 |
| B8 | 1.69 |
| B9 | 8.56 |
| B10 | 2.73 |
| B11 | 1.16 |
| B12 | 0.405 |
| B13 | 2.73 |
| B14 | 2.73 |
| B15 | 0.718 |
| B16 | 3.99 |
| B17 | 0.956 |
| B18 | 0.446 |
| B19 | 20.2 |
| B20 | 0.956 |
| B21 | 3 |
| B22 | 1.05 |
| B23 | 0.446 |
| B24 | 0.956 |
| B25 | 1.27 |
| B26 | 2.73 |
| B27 | 1.05 |
| B28 | 11.4 |

| Binder | apparent Kd (screen) [nM] |
| --- | --- |
| B29 | 0.49 |
| B30 | 0.956 |
| B31 | 0.79 |
| B32 | 0.446 |
| B33 | 1.16 |
| B34 | 0.539 |
| B35 | 4.83 |
| B36 | 7.78 |
| B37 | 2.73 |
| B38 | 1.4 |
| B39 | 12.5 |
| B40 | 0.446 |
| B41 | 0.446 |
| B42 | 0.446 |
| B43 | 20.2 |
| B44 | 3.99 |
| B45 | 0.49 |
| B46 | 6.43 |
| B47 | 1.05 |
| B48 | 0.446 |
| B49 | 9.41 |
| B50 | 7.07 |
| B51 | 11.4 |
| B52 | 0.49 |
| B53 | 12.5 |
| B54 | 7.78 |
| B55 | 13.8 |
